Experiment [1] deals with Atf1-G196-GFP at the tdh1 promoter. Kind of experiment: chromatin immunoprecipitation (ChIP) in fission yeast. It counts as cell-based. The settings on record: promoter of tdh1 gene (CRE consensus site); 3 μL mAb G196; qPCR. The procedure: Yeast cells were grown in YES medium at 30 °C to mid-log phase. After formaldehyde crosslinking and quenching, 1 × 10^8 cells were harvested to obtain 2 mL of soluble input extract. M-280 anti-mouse sheep antibody-conjugated magnetic beads (112-02, ThermoFisher Scientific) were used for immunoprecipitation: 200 μL of the beads were washed twice with extraction buffer (50 mM HEPES-KOH (pH 7.5), 140 mM NaCl, 1 mM EDTA, 1% Triton X-100, and 0.1% sodium deoxycholate), and then incubated in 1 mL of extraction buffer containing 3 μL of mAb G196 for 1 h at 4 °C. The beads were again washed twice with extraction buffer to remove unbound antibodies and incubated for 1 h with 800 μL of input extract at 4 °C. The relative concentrations of the target sequences were determined using SYBR Premix ExTaq (RR041A, TaKaRa Bio, Shiga, Japan) and a Thermal Cycler Dice Real Time System TP800 (TaKaRa Bio), according to the manufacturer’s instructions. The primers for detecting the −1 kb region were 5′-[…]-3′ and 5′-[…]-3′, and for the tdh1 CRE region the primers were 5′-[…]-3′ and 5′-[…]-3′.

In experiment [2] the test system is N- and C-terminally G196-tagged protein. The experiment in a line: detection of N- and C-terminally G196-tagged protein. The settings on record: this study and refs. 22 and 23.
Experiment [3] has as its system FLAG-HA-Emerald GFP tagged with C-terminal G196-tag (FHG-G196). The experiment in a line: immunoprecipitation (IP) from HeLa cell extracts. The class given is cell-based, human. The source says: Short peptides and paired mAbs specific for the sequences of interest are powerful and irreplaceable tools for scientific research. To ascertain the possible versatility of G196-tag as a versatile fusion tag, we generated several human and yeast expression constructs in which the G196-tag was fused to reporter proteins. First, we expressed FLAG- and HA-tagged Emerald GFP (hereafter abbreviated FHG) as a reporter protein, C-terminally fused with a G196-tag (6P12, SDLVPRGSP) in HeLa cells.
Figure 5 Application of the G196 epitope tag system for scientific research. (a) Western blot and immunoprecipitation (IP) analysis of FLAG-HA-Emerald GFP (FHG) tagged with C-terminal G196-tag in HeLa cells using mAb G196. HeLa cells were transfected with FHG/pcDNA3 or FHG-G196/pcDNA3. After incubation for two days, the cells were lysed and subjected to Western blotting with anti-FLAG (M2) or G196 mAbs (left panel). These lysates were immunoprecipitated with anti-FLAG (M2) (lanes 7, 8) or G196 (lanes 9, 10) mAbs and subjected to Western blotting with anti-FLAG polyclonal antibody (right panel). (b) Immunofluorescence of GFP- and G196-tagged nuclear protein in HeLa cells using mAb G196. HeLa cells were transfected with FHG-G196-NAC1/pcDNA3. After incubation for two days, the cells were fixed and incubated with mAb G196 and anti-GFP polyclonal Ab, then stained with Alexa-594 anti-mouse and Alexa-488 anti-rabbit secondary antibodies. (c) Western blot and chromatin immunoprecipitation (ChIP) analysis of Atf1-G196-GFP in fission yeast using mAb G196. A DNA fragment containing the transcription factor atf1 gene fused with the G196 epitope-GFP gene was replaced with the genomic atf1 gene. Protein extracts were separated by SDS-PAGE and detected with mAb G196 and anti-GFP polyclonal antibody (left panel). GFP-Iws1 expressing cells were used as a negative control. Asterisk indicates non-specific band also detected using the second Ab alone. Schematic representation of the tdh1 locus (right upper panel). The promoter of the tdh1 gene harbors a CRE consensus site. […]

In experiment [4] the test system is Atf1-G196-GFP. Kind of experiment: immunofluorescence of fission yeast cells. It counts as cell-based. Here is the method: Yeast cells exponentially growing in YES medium at 30 °C were fixed with 3% formaldehyde and incubated at 18 °C for 30 min. After quenching with 250 mM glycine, the cells were washed with PBSEMS (PBS buffer with 1 mM EGTA, 1 mM MgSO4 and 1.2 M sorbitol), resuspended in PBSEMS containing 5 mg/mL Zymolyase 20T (07663-91, Nacalai Tesque) and 0.1% 2-mercaptoethanol, and incubated at 37 °C for 1 h. The cells were washed three times with PBSEMS and resuspended in PBSEMT (PBS with 1 mM EGTA, 1 mM MgSO4 and 1% Triton X-100) and incubated at room temperature for 30 sec. After washing three times with PBSEM (PBS with 1 mM EGTA and 1 mM MgSO4), the cells were incubated in PBSEMALM (PBS with 1 mM EGTA, 1 mM MgSO4, 0.1% sodium azide, 0.1 M L-lysine and 5% skim milk) for 30 min. The cells were resuspended in PBSEMALM containing G196 mAb (1:1000) and anti-GFP rabbit polyclonal antibody (1:1000). After overnight incubation at room temperature, cells were washed with PBSEMALM three times, then resuspended in PBSEMALM containing anti-mouse antibody conjugated with Alexa 594 (1:100) and anti-rabbit conjugated with Alexa 488 (1:100). After one-hour incubation, the cells were washed with PBSEMAL containing 5% skim milk three times and resuspended in PBS containing 0.1% sodium azide. The cell suspension was mixed with an equal amount of 1% low-melting point agarose with DAPI on glass plates.

B1: mAb G196: mouse mAb (IgG1) raised against GST protein bacterially expressed using the pGEX-2T vector (antibody, V domains shown)
VH: QVKLQESGAELVKPGASVKLSCKASGYTFTNYWMHWVKLRPGQGFEWIGEINPSNGGSNYNEKFKRKATLTVDKSSSTAYMQLSSLTSEDSAVFYCSIWDSYFDYWGQGTTLTVSS
VL: NIVMTQSPKSMSMSVGERVTLTCKASENVVTYVSWYQQKPEQSPKLLIYGASNRYTGVPDRFTGSGSATDFTLTISSVQAEDLADYHCGQGYSYPYTFGGGTKLEIK
Take B1: in experiment [1], the “ChIP of Atf1” value was “enriched the Atf1 protein at the promoter of the tdh1 gene”. Further, the “detection of N- and C-terminally tagged protein” value in experiment [2] was “detected both N- and C-terminally G196-tagged protein”. Besides, in experiment [3] (HeLa cell extracts, FHG (lane 9)), the “immunoprecipitation of reporter lacking G196-tag” value is recorded as “did not immunoprecipitate reporter protein lacking the G196-tag”. Also, the “immunoprecipitation of FHG-G196” value in experiment [3] (HeLa cell extracts, Western blot with anti-FLAG polyclonal antibody (lane 10)) is reported as “efficiently immunoprecipited reporter protein”. Further, the “immunoprecipitation of FHG-G196 compared with anti-FLAG” value in experiment [3] (lane 10 versus lane 8) is “comparable to that of FLAG immunoprecipitates”. Further, the “immunofluorescence recognition of Atf1” value in experiment [4] (G196- and GFP-tagged Atf1, mAb 1:1000) is “recognized G196- and GFP-tagged Atf1”. Besides, the “immunofluorescence of Atf1 compared with anti-GFP polyclonal” value in experiment [4] (versus polyclonal anti-GFP antibody) is “comparable to that of a polyclonal anti-GFP antibody”.

For the origin of these results see article PMC5339894, “G196 epitope tag system: a novel monoclonal antibody, G196, recognizes the small, soluble peptide DLVPR with high affinity” (Scientific Reports, 2017).
